Laboratory results published in patent US20110195072A1, “NON-NEUROENDOCRINE CANCER THERAPY” (priority 2006, published 2011).

Assays:
Assay type in all cases: cell-based, human
[1] = system: MCF7 cells; assay: GDNF-induced Erk (MAPK) activation after siRNA transfection, immunoblot; settings: 72 hrs after siRNA transfection, 10 ng/ml GDNF for 10 min
Method: (§1) MCF7 and T47D cells are seeded at 5×10^5/4 ml in 6 cm plates for 24 hrs. Cells are transfected with siRNAs targeting Ret (siRet1: […] siRet2: […]; Qiagen) or a control siRNA targeting LacZ ([…]) using Oligofectamine (12252-011, Invitrogen) and HiPerFect, respectively. After 72 hrs, cells are stimulated with 10 ng/ml GDNF alone (for 10 min in MCF7) or together with 100 ng/ml GFRα1 (for 30 min in T47D; rhGFRα1/Fc chimera 714-GR, R&D Systems), extracted and resolved by 12.5% SDS-PAGE electrophoresis and immunoblot analysis is performed using rabbit polyclonal antibodies against Erk (MAPK) and phospho-Erk (p-MAPK: see FIG. 7).

[2] = system: T47D cells; assay: as above; settings: 72 hrs after siRNA transfection, 10 ng/ml GDNF with 100 ng/ml GFRα1 for 30 min
Method: as §1

[3] = system: Ret; assay: Ret expression after siRNA transfection (Western blot and PCR) in MCF7 cells; settings: 20 nM siRNA
Method: MCF7 cells are seeded at a density of 10^5 cells/well in 6 well plates. 24 hours after seeding, cells are transfected with control lacZ siRNA or Ret siRNA (Qiagen, 96165/96166) at a final siRNA concentration of 20 nM using HiPerFect transfection reagent (Qiagen, 301705). siRNA targeting sequences are as following:
Ret9 and Ret51 protein expression is analyzed 72 hours post siRNA transfection using polyclonal antibodies from Santa Cruz (C-19 against Ret9: sc-167; C-20 against Ret51: sc-1290) and direct Western Blot analysis with 50 μg of total protein extract (FIG. 2 Panel A). […] As a control, total RNA is extracted in a parallel experiment (RNeasy, 74104, Qiagen). First-strand cDNA is synthesized using SuperScript III First-Strand Synthesis System for RT-PCR (Invitrogen, 18080-051), using random hexamer primers.

[4] = system: MCF7 cells; assay: Anchorage-independent cell proliferation (polyheme assay); settings: 10 ng/ml GDNF alone for 4 days, polyheme-coated plates
Method: (§2) MCF7 and T47D cells are seeded at 5×10^5/4 ml in 6 cm plates coated with polyheme (P3932, Sigma) to prevent adhesion of the cells to the substratum. Cells are treated with 10 ng/ml GDNF alone (MCF7) or together with 100 ng/ml GFRα1 (T47D) for 4 days. Cells were collected, trypsinized and counted (Vi-cell XR, Beckman Coulter).
(§3) MCF7 and T47D cells are seeded at 10^6/4 ml in 6 cm plates coated with polyheme. Cells are pretreated with 100 nM of a Ret inhibitor [repeat name of compound from earlier] or the vehicle DMSO for 1 hr, and then treated with 10 ng/ml GDNF alone (MCF7) or together with 100 ng/ml GFRα1 (T47D) for 4 days. Cells are collected, trypsinized and counted (Vi-cell XR, Beckman Coulter).

[5] = system: T47D cells; assay: as above; settings: 10 ng/ml GDNF with 100 ng/ml GFRα1 for 4 days, polyheme-coated plates
Method: as §2, §3

[6] = system: MCF7 cells; assay: GDNF stimulation of Erk and JNK/SAPK phosphorylation, immunoblot; settings: 100 ng/ml GDNF, 5 min to 8 hrs
Method: (§4) MCF7 and T47D cells are seeded at 3×10^6/15 ml and 3×10^6/10 ml in 15 and 10 cm plates for 2 days respectively. Cells are serum deprived (0.1% FCS) for 16 to 24 hrs or refed with normal medium. Cells are stimulated with 100 ng/ml GDNF (450-10, PeProTech) for 5, 10, 20, or 30 min 1, 4 or 8 hrs. Cell extracts are resolved by 10 or 12.5% SDS-PAGE electrophoresis and immunoblot analysis is performed using rabbit polyclonal antibodies raised against Erk (MAPK: 9102, Cell Signaling Technology) phospho-Erk (P-MAPK: […]; 9101) JNK/SAPK (9251) and phospho-JNK/phospho-SAP (Thr183/Tyr185; 9252) (see FIG. 6).

[7] = system: T47D cells; assay: as above; settings: 100 ng/ml GDNF, 5 min to 8 hrs
Method: as §4

[8] = system: MCF7 cells; assay: Soft agar colony assay (anchorage-independent proliferation); settings: 10 or 100 ng/ml GDNF alone, every week for 4 weeks
Method: (§5) MCF7 and T47D cells are treated with 10 or 100 ng/ml GDNF alone (MCF7) or together with 100 ng/ml GFRα1 (T47D) for 10 to 20 min in suspension and subsequently seeded at 10^5/2 ml in 6-well plates in a soft agar layer. Cells are treated again with GDNF alone or together with GFRα1 every week for 4 weeks in fresh medium. Colonies are stained with nitrotetrazolium blue and counted (Artek counter 880, Dynatech Laboratories).

[9] = system: T47D cells; assay: as above; settings: 10 or 100 ng/ml GDNF with 100 ng/ml GFRα1, every week for 4 weeks
Method: as §5

In the case of “siRet2: siRNA targeting Ret, TAGGCTGGTTCTCAACCGGAA (Qiagen) (target sequence only, siRNA duplex strands not listed, further chemistry not given here)”, the “GDNF-induced activation of Erk (MAPK)” value [1] is reported as “prevents” and the “GDNF-induced activation of Erk (MAPK)” value [2] is reported as “prevents”.

“siRet1: siRNA targeting Ret, targeting sequence CCGCTGGTGGACTGTAATAAT (Qiagen) (target sequence only, siRNA duplex strands not listed, further chemistry not given here)” was tested, and the “Ret9 protein expression (Western blot signal)” value ([3]; 72 hours post transfection, antibody C-19) was “reduction in signal”, the “Ret51 protein expression (Western blot signal)” value ([3]; 72 hours post transfection, antibody C-20) was “reduction in signal” and the “Ret mRNA expression (PCR)” value ([3]; parallel experiment) was “reduction in Ret mRNA”. The “GDNF-induced activation of Erk (MAPK)” value [1] was “prevents” and the “GDNF-induced activation of Erk (MAPK)” value [2] was “prevents”.

B1: GDNF: glial-derived neurotrophic factor, specific ligand of Ret (450-10, PeProTech) (protein, UniProt P39905 78-211, looked up)
Glial cell line-derived …: SPDKQMAVLPRRERNRQAAAANPENSRGKGRRGQRGKNRGCVLTAIHLNVTDLGLGYETKEELIFRYCSGSCDAAETTYDKILKNLSRNRRLVSDKVGQACCRPIAFDDDLSFLDDNLVYHILRKHSAKRCGCI
modifications: recombinant, PeProTech
B1 was tested, and the “anchorage-independent cell proliferation (cell count)” value [4] was “significantly enhances”, the “anchorage-independent cell proliferation (cell count)” value [5] was “significantly enhances” and the “phosphorylation of Erk” value [6] was “increased phosphorylation”. The “phosphorylation of JNK/SAPK” value [6] was “increased phosphorylation”, the “phosphorylation of Erk” value [7] was “increased phosphorylation” and the “phosphorylation of JNK/SAPK” value [7] was “increased phosphorylation”. The “number of colonies in soft agar” value [8] was “significantly increased the number of colonies in a concentration-dependent manner” and the “number of colonies in soft agar” value [9] was “significantly increased the number of colonies in a concentration-dependent manner”.
